How the values were obtained:
[1] = target: T1, Human IFNβ (mature human interferon beta) (human, UniProt P01574 22-187); test: cell-based or functional assay
[2] = target: T1, Human IFNβ (mature human interferon …); test: Octet (BLI) response rank; method not described
[3] = target: T1, Human IFNβ (mature human interferon …); test: SPR (affinity maturation); before the light chain mutations (parent antibody)
[4] = target: T1, Human IFNβ (mature human interferon …); test: SPR, Biacore T200; antibody amine-coupled on CM5 chip, human IFNβ as analyte, 1:1 model

T1 sequence (P01574 22-187): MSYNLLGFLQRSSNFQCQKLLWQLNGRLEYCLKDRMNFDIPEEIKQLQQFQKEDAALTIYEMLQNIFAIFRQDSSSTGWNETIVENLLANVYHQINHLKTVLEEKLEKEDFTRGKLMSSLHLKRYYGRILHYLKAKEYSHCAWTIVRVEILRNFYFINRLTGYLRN

B1: CTI-AF15 (antibody, human IgG1, kappa, V domains shown)
VH: QVQLVQSGAEVKKPGSSVKVSCKASGYTFSRYWMHWVRQAPGQGLEWMGHIDPSDSYTYYNQKFKGRVTITADESTSTAYMELSSLRSEDTAVYYCARWDYGNLLFEYWGQGTLVTVSS
VL: DIQMTQSPSSLSASVGDRVTITCRTSQDISSYLNWYQQKPGKAFKLLIYSTSRLHSGVPSRFSGSGSGTDFTLTISSLQPEDFATYYCQQGIILPITFGGGTKVEIKR
IC50 (pM) pSTAT1 Inhibition [1]: 80 pM
Response rank (Octet) [2]: 3 rank

B2: humanized parent of CTI-AF1 before affinity maturation (antibody, V domains shown)
VH: QVQLVQSGAEVKKPGSSVKVSCKASGYTFSRYWMHWVRQAPGQGLEWMGHIDPSDSYTYYNQKFKGRVTITADESTSTAYMELSSLRSEDTAVYYCARWDYGNLLFEYWGQGTLVTVSS
VL: DIQMTQSPSSLSASVGDRVTITCRTSQDISNYLNWYQQKPGKAFKLLIYSTSRLHSGVPSRFSGSGSGTDFTLTISSLQPEDFATYYCQQGHTLPLTFGGGTKVEIK
notes: no mutations were made in VH
Kd [3]: 25 nM

B3: CTI-AF5 (antibody, human IgG1, kappa, V domains shown)
VH: QVQLVQSGAEVKKPGSSVKVSCKASGYTFSRYWMHWVRQAPGQGLEWMGHIDPSDSYTYYNQKFKGRVTITADESTSTAYMELSSLRSEDTAVYYCARWDYGNLLFEYWGQGTLVTVSS
VL: DIQMTQSPSSLSASVGDRVTITCRTSQDISNYLNWYQQKPGKAFKLLIYTTSRLRSGVPSRFSGSGSGTDFTLTISSLQPEDFATYYCQQGIVLPITFGGGTKVEIKR
IC50 (pM) pSTAT1 Inhibition [1]: 10 pM

B4: CTI-AF10 (antibody, human IgG1, kappa, V domains shown)
VH: QVQLVQSGAEVKKPGSSVKVSCKASGYTFSRYWMHWVRQAPGQGLEWMGHIDPSDSYTYYNQKFKGRVTITADESTSTAYMELSSLRSEDTAVYYCARWDYGNLLFEYWGQGTLVTVSS
VL: DIQMTQSPSSLSASVGDRVTITCRTSQDISSYLNWYQQKPGKAFKLLIYSTSRLHSGVPSRFSGSGSGTDFTLTISSLQPEDFATYYCQQSTILPLTFGGGTKVEIKR
Response rank (Octet) [2]: 5 rank

B5: CTI-AF14 (antibody, human IgG1, kappa, V domains shown)
VH: QVQLVQSGAEVKKPGSSVKVSCKASGYTFSRYWMHWVRQAPGQGLEWMGHIDPSDSYTYYNQKFKGRVTITADESTSTAYMELSSLRSEDTAVYYCARWDYGNLLFEYWGQGTLVTVSS
VL: DIQMTQSPSSLSASVGDRVTITCRTSQDISNYLNWYQQKPGKAFKLLIFSTSRLHSGVPSRFSGSGSGTDFTLTISSLQPEDFATYYCQQGIILPITFGGGTKVEIKR
IC50 (pM) pSTAT1 Inhibition [1]: 30 pM
Response rank (Octet) [2]: 7 rank

B6: CTI-AF23 (antibody, human IgG1, kappa, V domains shown)
VH: QVQLVQSGAEVKKPGSSVKVSCKASGYTFSRYWMHWVRQAPGQGLEWMGHIDPSDSYTYYNQKFKGRVTITADESTSTAYMELSSLRSEDTAVYYCARWDYGNLLFEYWGQGTLVTVSS
VL: DIQMTQSPSSLSASVGDRVTITCRTSQDISSYLNWYQQKPGKAFKLLIYTTSRLRSGVPSRFSGSGSGTDFTLTISSLQPEDFATYYCQQSTILPLTFGGGTKVEIKR
Response rank (Octet) [2]: 9 rank

B7: CTI-AF8 (antibody, human IgG1, kappa, V domains shown)
VH: QVQLVQSGAEVKKPGSSVKVSCKASGYTFSRYWMHWVRQAPGQGLEWMGHIDPSDSYTYYNQKFKGRVTITADESTSTAYMELSSLRSEDTAVYYCARWDYGNLLFEYWGQGTLVTVSS
VL: DIQMTQSPSSLSASVGDRVTITCRTSQDIGNYLNWYQQKPGKAFKLLIYSTSRLHSGVPSRFSGSGSGTDFTLTISSLQPEDFATYYCQQSTILPLTFGGGTKVEIKR
IC50 (pM) ISRE Neutralization [1]: 460 pM
Response rank (Octet) [2]: 6 rank

B8: CTI-AF4 (antibody, human IgG1, kappa, V domains shown)
VH: QVQLVQSGAEVKKPGSSVKVSCKASGYTFSRYWMHWVRQAPGQGLEWMGHIDPSDSYTYYNQKFKGRVTITADESTSTAYMELSSLRSEDTAVYYCARWDYGNLLFEYWGQGTLVTVSS
VL: DIQMTQSPSSLSASVGDRVTITCRTSQDISSYLNWYQQKPGKAFKLLIYSTSRLHSGVPSRFSGSGSGTDFTLTISSLQPEDFATYYCQQGIVLPITFGGGTKVEIKR
Response rank (Octet) [2]: 4 rank

B9: CTI-AF27 (antibody, human IgG1, kappa, V domains shown)
VH: QVQLVQSGAEVKKPGSSVKVSCKASGYTFSRYWMHWVRQAPGQGLEWMGHIDPSDSYTYYNQKFKGRVTITADESTSTAYMELSSLRSEDTAVYYCARWDYGNLLFEYWGQGTLVTVSS
VL: DIQMTQSPSSLSASVGDRVTITCRTSQDIDNFLQWYQQKPGKAFKLLIFSTSKLHSGVPSRFSGSGSGTDFTLTISSLQPEDFATYYCQQGIILPITFGGGTKVEIKR
IC50 (pM) pSTAT1 Inhibition [1]: 70 pM
Response rank (Octet) [2]: 10 rank

B10: CTI-AF20 (antibody, human IgG1, kappa, V domains shown)
VH: QVQLVQSGAEVKKPGSSVKVSCKASGYTFSRYWMHWVRQAPGQGLEWMGHIDPSDSYTYYNQKFKGRVTITADESTSTAYMELSSLRSEDTAVYYCARWDYGNLLFEYWGQGTLVTVSS
VL: DIQMTQSPSSLSASVGDRVTITCRTSQDISSYLNWYQQKPGKAFKLLIYTTSRLRSGVPSRFSGSGSGTDFTLTISSLQPEDFATYYCQQGIVLPITFGGGTKVEIKR
IC50 (pM) pSTAT1 Inhibition [1]: 20 pM
Response rank (Octet) [2]: 8 rank
Kd [4]: 0.335 nM

B11: CTI-AF21 (antibody, human IgG1, kappa, V domains shown)
VH: QVQLVQSGAEVKKPGSSVKVSCKASGYTFSRYWMHWVRQAPGQGLEWMGHIDPSDSYTYYNQKFKGRVTITADESTSTAYMELSSLRSEDTAVYYCARWDYGNLLFEYWGQGTLVTVSS
VL: DIQMTQSPSSLSASVGDRVTITCRTSQDIDNFLQWYQQKPGKAFKLLIFSTSKLHSGVPSRFSGSGSGTDFTLTISSLQPEDFATYYCQQGIVLPITFGGGTKVEIKR
Response rank (Octet) [2]: 11 rank

B12: CTI-AF9 (antibody, human IgG1, kappa, V domains shown)
VH: QVQLVQSGAEVKKPGSSVKVSCKASGYTFSRYWMHWVRQAPGQGLEWMGHIDPSDSYTYYNQKFKGRVTITADESTSTAYMELSSLRSEDTAVYYCARWDYGNLLFEYWGQGTLVTVSS
VL: DIQMTQSPSSLSASVGDRVTITCRTSQDISNYLNWYQQKPGKAFKLLIFSTSRLHSGVPSRFSGSGSGTDFTLTISSLQPEDFATYYCQQSTILPLTFGGGTKVEIKR
IC50 (pM) ISRE Neutralization [1]: 75 pM
Response rank (Octet) [2]: 12 rank

B13: CTI-AF16 (antibody, human IgG1, kappa, V domains shown)
VH: QVQLVQSGAEVKKPGSSVKVSCKASGYTFSRYWMHWVRQAPGQGLEWMGHIDPSDSYTYYNQKFKGRVTITADESTSTAYMELSSLRSEDTAVYYCARWDYGNLLFEYWGQGTLVTVSS
VL: DIQMTQSPSSLSASVGDRVTITCRTSQDISNYLNWYQQKPGKAFKLLIYTTSRLRSGVPSRFSGSGSGTDFTLTISSLQPEDFATYYCQQGIILPITFGGGTKVEIKR
IC50 (pM) ISRE Neutralization [1]: 14 pM
Response rank (Octet) [2]: 2 rank
